Measurements reported in patent US11357830B2, “Nano-scale delivery device and uses thereof” (The Regents of the University of California, priority 2016, dated 2022).

Tested on: Proteinase-K
Test: Proteinase-K protection test of Beta Lactamase (BLA) preparations, Nitrocefin Assay (FIGS. 3B, 3C)
Assay type: biochemical
Conditions: PK overnight, 0.1 mg/ml in 1x PBS, 37° C.; 250 μg/ml nitrocefin, absorbance 486 nm
Description: To verify enzyme encapsulation and activity, three separate preparations were incubated with and without Proteinase-K (PK). […] In this example, the three preparations were exposed to Proteinase-K (Thermo Scientific Pierce Proteinase K) enzyme overnight at a concentration of 0.1 mg/ml in 1× phosphate buffered saline (PBS) solution at 37° C. Enzyme activity assay was done on the samples post incubation with PK using a Nitrocefin Assay (BLA hydrolysis of nitrocefin produces a shift of UV absorption inside the visible light spectrum from intact nitrocefin (˜380 nm) to degraded nitrocefin (˜500 nm) allowing visual detection of BLA activity on a macroscopic level). Each reaction was 100 μl in total and contained 250 μg/ml nitrocefin as substrate. Absorbance was measured at 486 nm.

Beta Lactamase (BLA) [bare unencapsulated enzyme]
BLA enzyme activity when exposed to Proteinase-K (PK): loses all activity
